# Assays:
# [1] = biological target: T1, thymidylate synthase (TS) (zebrafish, UniProt A0ACM8Q3Q5 1-318); assay: competition EMSA; vs 32P full-length TS mRNA; 37 C, 10 min; 100 ng TS (200 ng in Fig. 5B legend), 1 ng 32P TS mRNA; non-denaturing 5% acrylamide gel (60:1); binding buffer, salt and pH not given (cited ref. 16); conditions: protein: recombinant; tags: His-tag removed by thrombin; chain copies: 2; hairpin (MFold), 6 nt loop
# [2] = biological target: T1, thymidylate synthase (TS); assay: EMSA; 100 ng TS; 37 C, 10 min; 100 ng TS (200 ng in Fig. 5B legend), 1 ng 32P TS mRNA; non-denaturing 5% acrylamide gel (60:1); binding buffer, salt and pH not given (cited ref. 16); conditions: protein: recombinant, tags: His-tag removed by thrombin, chain copies: 2, hairpin (MFold)
# T1 sequence (A0ACM8Q3Q5 entry or part of it): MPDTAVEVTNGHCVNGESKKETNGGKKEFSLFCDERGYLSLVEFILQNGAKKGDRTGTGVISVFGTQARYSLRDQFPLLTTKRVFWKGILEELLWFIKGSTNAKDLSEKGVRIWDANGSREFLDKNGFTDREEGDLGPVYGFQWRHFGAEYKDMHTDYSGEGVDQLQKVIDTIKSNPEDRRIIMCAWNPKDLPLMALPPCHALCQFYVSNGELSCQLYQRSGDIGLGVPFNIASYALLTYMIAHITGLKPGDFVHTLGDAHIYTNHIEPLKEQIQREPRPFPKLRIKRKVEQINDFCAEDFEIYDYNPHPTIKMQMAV
binder,measurement,setting,value
CUCUUGUUGUGCUGCAGGAU (structured_RNA) [TS:N20 (TS13-32)],IC50,[1],0.62 ± 0.2 nM
CUCUUGUUGUGCAGGAU (structured_RNA) [Δ20-TS RNA],binding result,[2],no binding
CUCUUGUUGUAAAGCAGGAU (structured_RNA) [Δ20-23-TS RNA (Δ20-22 in Table 1)],binding result,[2]; 4 nt loop,no binding
CUCUUCAUGUGCUGCAGGAU (structured_RNA) [Δ20-18-TS RNA],binding result,[2]; 5 nt loop,no binding

# From publication PMC2868900, “Interaction between Thymidylate Synthase and Its Cognate mRNA in Zebrafish Embryos”
